Experimental data published in paper PMC11371196, “PLASMODESMATA-LOCATED PROTEIN 6 regulates plasmodesmal function in Arabidopsis vasculature” (The Plant Cell, 2024).
Where no end group is shown, it is not given here.

Columns and labels:
[1] = target: T1, maltose binding protein fused SUS6 (Arabidopsis thaliana, UniProt Q9FX32 1-942); experiment: pull-down; 1 μg biotinylated peptide with 1 μg MBP or MBP fusion protein in 300 μL binding buffer (50 mM Tris pH 7.5, 150 mM NaCl, 0.05% NP-40), 4 °C overnight; Dynabeads MyOne Streptavidin C1; immunoblot with MBP antibody; details: both partners purified
T1 construct: SUCROSE SYNTHASE 6 (SUS6), Arabidopsis thaliana, At1G73370; also called MBP-SUS6; pET-MBP-SUS6; source: E. coli Rosetta, purified (amylose resin); not shown: MBP, N-terminal, kept
T1 sequence (Q9FX32 whole entry, the tested form may be a part): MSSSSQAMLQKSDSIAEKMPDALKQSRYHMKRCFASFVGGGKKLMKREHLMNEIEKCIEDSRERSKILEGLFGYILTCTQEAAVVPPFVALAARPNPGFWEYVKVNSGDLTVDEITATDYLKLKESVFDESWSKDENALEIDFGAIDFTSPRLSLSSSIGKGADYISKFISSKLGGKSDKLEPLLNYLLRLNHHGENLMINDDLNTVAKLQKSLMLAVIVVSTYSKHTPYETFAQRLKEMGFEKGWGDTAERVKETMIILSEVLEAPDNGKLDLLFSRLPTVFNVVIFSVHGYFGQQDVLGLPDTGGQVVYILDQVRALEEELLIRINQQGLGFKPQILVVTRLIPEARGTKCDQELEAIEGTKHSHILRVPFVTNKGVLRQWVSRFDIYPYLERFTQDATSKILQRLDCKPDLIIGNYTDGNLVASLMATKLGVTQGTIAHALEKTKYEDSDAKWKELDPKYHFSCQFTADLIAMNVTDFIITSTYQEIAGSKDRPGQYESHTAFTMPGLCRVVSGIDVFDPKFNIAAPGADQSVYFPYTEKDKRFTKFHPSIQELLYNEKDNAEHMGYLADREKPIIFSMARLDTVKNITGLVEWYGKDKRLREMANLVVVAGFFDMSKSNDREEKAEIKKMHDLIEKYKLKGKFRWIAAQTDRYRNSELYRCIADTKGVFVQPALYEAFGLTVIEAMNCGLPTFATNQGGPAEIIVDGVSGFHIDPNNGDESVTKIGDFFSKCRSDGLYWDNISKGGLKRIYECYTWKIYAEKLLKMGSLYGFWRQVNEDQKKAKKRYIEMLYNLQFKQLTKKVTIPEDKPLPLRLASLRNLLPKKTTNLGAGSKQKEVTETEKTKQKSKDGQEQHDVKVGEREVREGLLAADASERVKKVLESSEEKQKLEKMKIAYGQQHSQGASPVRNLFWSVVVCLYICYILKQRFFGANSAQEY

free MBP = free MBP (UniProt P0AEX9 27-396 = MBP); experiment: as above; details: both partners purified

B1: biotinylated C-terminal tail of PDLP6 (peptide)
peptide: AKSCERGKGGK
modifications: also: biotin (position not given here)
notes: C-terminal tail of PDLP6, which faces the cytoplasmic sleeve; Arabidopsis thaliana, At2g01660; also called PDLP6-CT-biotin; source: synthetic peptide, bought: PEPTIDE 2.0
- binding result [1]: binds

B2: biotinylated C-terminal tail of PDLP5 (peptide)
peptide: GKCCRKLQDEKWCK
modifications: cysteine pairing not given here; also: biotin (position not given here)
notes: C-terminal tail of PDLP5, Arabidopsis thaliana, At1g70690; also called PDLP5-CT-biotin; source: synthetic peptide, bought: PEPTIDE 2.0
- binding result [1]: binds

B3: biotinylated C-terminal tail of PDLP7 (peptide)
peptide: RGVCSRGGDFSILHSFTLI
modifications: also: biotin (position not given here)
notes: C-terminal tail of PDLP7, Arabidopsis thaliana, At5G37660; also called PDLP7-CT-biotin; source: synthetic peptide, bought: PEPTIDE 2.0
- binding result (free MBP): binds
